In the test the target is T1, biotin-labelled EZH2 protein (UniProt Q15910 1-746, limits assumed, biotin label (EZ-link NHS-PEO4-Biotinylation kit)).
T1 construct: Probe in solution (1 ug/ml) on the KDM2B peptide microarray; also called NHS-PEO4-Biotinylation-labelled EZH2 protein; recombinant protein
The test can be described thus: KDM2B peptide array probed with biotin-EZH2 1 ug/ml, SA-HRP/ECL.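 Also: Background-corrected optical density of each spot on the membrane, given as percent of the brightest spot (100%), color developed for 5 minutes; 100% is the highest background-corrected spot optical density on the membrane.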

T1 sequence (Q15910 whole entry): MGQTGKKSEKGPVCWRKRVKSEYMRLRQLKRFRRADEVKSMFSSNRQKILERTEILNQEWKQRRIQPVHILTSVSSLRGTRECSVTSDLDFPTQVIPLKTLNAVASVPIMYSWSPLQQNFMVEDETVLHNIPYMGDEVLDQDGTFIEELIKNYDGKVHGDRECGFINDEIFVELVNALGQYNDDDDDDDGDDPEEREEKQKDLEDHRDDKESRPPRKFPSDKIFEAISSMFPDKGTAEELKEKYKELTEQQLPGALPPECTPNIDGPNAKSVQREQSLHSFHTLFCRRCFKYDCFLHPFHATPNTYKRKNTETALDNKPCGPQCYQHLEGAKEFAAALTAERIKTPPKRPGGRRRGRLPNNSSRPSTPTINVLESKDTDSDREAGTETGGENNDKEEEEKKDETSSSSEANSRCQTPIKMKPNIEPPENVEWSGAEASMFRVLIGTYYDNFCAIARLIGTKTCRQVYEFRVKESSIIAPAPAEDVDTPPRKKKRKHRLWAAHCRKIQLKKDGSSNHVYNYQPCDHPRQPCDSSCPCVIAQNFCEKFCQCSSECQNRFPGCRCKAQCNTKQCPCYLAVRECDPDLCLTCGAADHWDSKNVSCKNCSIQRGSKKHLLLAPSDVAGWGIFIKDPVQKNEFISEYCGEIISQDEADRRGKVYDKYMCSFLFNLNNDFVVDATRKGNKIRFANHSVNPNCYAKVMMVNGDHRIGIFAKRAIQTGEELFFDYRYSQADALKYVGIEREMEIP
Protocol: After blocking, the polypeptide microarray was incubated with biotin-labeled target protein for hybridization, visualized with the chemical chromogenic substrate and imaged using a Chempchemi digital imager. The image of colored polypeptide microarray was analyzed for the optical density of the colored points. Particularly, the optical density of each colored point was calculated using the optical density of the respective surrounding background as a reference for background correction. The highest optical density value of the colored point on membrane was set to 100%, and the optical density value of the remaining colored points was converted into percentages relative to the highest value. The points with an optical density percentage of more than 30% on the polypeptide membrane and also with an optical density percentage of less than 30% on the negative membrane were defined as positive colored points.
For the hybridization experiment, a solution of NHS-PEO4-Biotinylation-labelled EZH2 protein (1 μg/ml) was used for the hybridization of the polypeptide microarray. Streptavidin-HRP was used to amplify the reaction signal according to the experimental procedure and conditions described above, and the time of color development was 5 minutes.

As for LKPGKEDKLFRKKRR [peptide 172], the “Intensity (%)” value came to 0%.

With RKKRRSWKNAEDRMA [peptide 174], the “Intensity (%)” value is 0.47%.

Turning to HREVWMAVFSYLSHQ [peptide 214], the “Intensity (%)” value came out at 0%.

On to EPESEGEEPKRPPGI [peptide 196], for which the “Intensity (%)” value turned out to be 1.04%.

SWKNAEDRMALANKP [peptide 175]: the “Intensity (%)” value came out at 0%.

For the molecule NRLPGLRDLVLSGCS [peptide 230], the “Intensity (%)” value turned out to be 7.03%.

For the molecule HEIQRTENSLANENQ [peptide 192], the “Intensity (%)” value came to 0.19%.

For the molecule GPEEKKKVKMRRKRR [peptide 186], the “Intensity (%)” value stood at 0%.

For CCDKRLWTRIDLNHC [peptide 220], the “Intensity (%)” value came out at 4.32%.

Consider EDKLFRKKRRSWKNA [peptide 173], for which the “Intensity (%)” value turned out to be 0%.

Consider LPNKELSRELSKELN [peptide 189], for which the “Intensity (%)” value stood at 0%.

AAHVMHREVWMAVFS [peptide 213]: the “Intensity (%)” value was determined as 11.8%.

SKELNHEIQRTENSL [peptide 191]: the “Intensity (%)” value came to 0%.

Take DFNYEYVQREALRVP [peptide 19]: the “Intensity (%)” value was 0%.

Consider LWTRIDLNHCKSITP [peptide 221], for which the “Intensity (%)” value came out at 4.09%.

Take EDRMALANKPLRRFK [peptide 176]: the “Intensity (%)” value was found to be 0%.

Regarding LANKPLRRFKQEPED [peptide 177], the “Intensity (%)” value came to 0%.

Consider PLDDGAAHVMHREVW [peptide 212], for which the “Intensity (%)” value was 0%.

As to RFSKGLNGTPRELRH [peptide 200], the “Intensity (%)” value is 0.91%.

In the case of PVSLDLSWTNISKKQ [peptide 226], the “Intensity (%)” value was 0.51%.

Take MRVCRTWNRWCCDKR [peptide 218]: the “Intensity (%)” value was determined as 2.93%.

For the molecule TEGAEGPEEKKKVKM [peptide 185], the “Intensity (%)” value was found to be 0%.

PPDSLPLDDGAAHVM [peptide 211]: the “Intensity (%)” value worked out at 0%.

As to KKVKMRRKRRLPNKE [peptide 187], the “Intensity (%)” value stood at 0.95%.

As for SPPKCIQMERHVIRP [peptide 207], the “Intensity (%)” value turned out to be 0%.

Turning to CERPHRFSKGLNGTP [peptide 199], the “Intensity (%)” value was 0.18%.

Turning to YVQREALRVPLIFRE [peptide 20], the “Intensity (%)” value is 1.28%.

For PPPSVSPPKCIQMER [peptide 206], the “Intensity (%)” value is 1.29%.

For the molecule LRRFKQEPEDELPEA [peptide 178], the “Intensity (%)” value worked out at 0%.

With GEEPKRPPGICERPH [peptide 197], the “Intensity (%)” value was 0%.

With ANENQQPIKSEPESE [peptide 194], the “Intensity (%)” value is 0%.

Turning to DLCVCMRVCRTWNRW [peptide 217], the “Intensity (%)” value amounted to 0.19%.

For the molecule LMLSGIIRRQPVSLD [peptide 224], the “Intensity (%)” value worked out at 0%.

Turning to LIFREKDGLGIKMPD [peptide 22], the “Intensity (%)” value was 2.54%.

For the molecule TENSLANENQQPIKS [peptide 193], the “Intensity (%)” value was determined as 0%.

On to YLSHQDLCVCMRVCR [peptide 216], for which the “Intensity (%)” value came to 0%.

Take LRSPPRVISRPPPSV [peptide 204]: the “Intensity (%)” value stood at 1.91%.

Turning to YFQQQLKPGKEDKLF [peptide 171], the “Intensity (%)” value came to 0%.

As to ALRVPLIFREKDGLG [peptide 21], the “Intensity (%)” value turned out to be 21.1%.

Regarding DLNHCKSITPLMLSG [peptide 222], the “Intensity (%)” value came to 0%.

As to KDGLGIKMPDPDFTV [peptide 23], the “Intensity (%)” value came out at 0%.

For the molecule QLGPSLRSPPRVISR [peptide 203], the “Intensity (%)” value worked out at 0%.

As to LSRELSKELNHEIQR [peptide 190], the “Intensity (%)” value stood at 0.26%.

QPIKSEPESEGEEPK [peptide 195]: the “Intensity (%)” value stood at 2.29%.

ELPEAPPKTRESDHS [peptide 180]: the “Intensity (%)” value worked out at 0%.

Consider RRKRRLPNKELSREL [peptide 188], for which the “Intensity (%)” value came to 0.8%.

For the molecule MAVFSYLSHQDLCVC [peptide 215], the “Intensity (%)” value was determined as 2.82%.

For the molecule QEPEDELPEAPPKTR [peptide 179], the “Intensity (%)” value turned out to be 0.39%.

For the origin of these results see patent US20250197451A1 (CAPITAL MEDICAL UNIVERSITY SCHOOL OF STOMATOLOGY, published 2025).
